Laboratory results published in PMC9506717.

Settings: glycan lost

Question: With Spike: N61/603/657 triple mutant as the substance, how does the “other: Spike incorporation into virions” value read?
Answer: decreases

Question: Which expression_or_secretion does the source give for Spike: N657Q here?
Answer: no change

Question: What does the source list for Spike: N61/657Q?
Answer: expression_or_secretion: no change; other: Spike incorporation into virions: decreases

Question: For Spike: N603Q, which expression_or_secretion is on record?
Answer: no change

Question: For Spike: N801Q, which expression_or_secretion is on record?
Answer: no change

Question: And the “other: Spike incorporation into virions” value?
Answer: decreases

Question: With Spike: N61Q as the substance, how does the expression_or_secretion read?
Answer: no change

Question: What about the “other: Spike incorporation into virions” value of the same substance?
Answer: decreases

Question: What does the source list for Spike: N61/603/657Q?
Answer: expression_or_secretion: no change; other: Spike incorporation into virions: decreases

Question: Which “other: Spike incorporation into virions” value does the source give for Spike: N61Q/N657Q here?
Answer: decreases

Question: For Spike: N616Q, which expression_or_secretion is on record?
Answer: no change

Question: And the “other: viral entry” value?
Answer: decreases

Question: For Spike: N603/657Q, which expression_or_secretion is on record?
Answer: no change
